Drawing on US10766960 (dated 2020), this text covers Kd for four molecules.

Values joined by “and” are separate entries in the source; they are usually repeats but may differ in a detail not shown here. Equal entries are not always repeated. Where two headings read alike, the source gives them in different places.

Experiment in all cases: SPR
Background: In SPR one partner is held on a chip, and binding of the other changes the refractive index at the surface.

The target of test [1] is T1, FcgRIIIa V (human, UniProt P08637).
Test [2] addresses T2, FcgRIIa R (human, UniProt P12318).
T2 chain: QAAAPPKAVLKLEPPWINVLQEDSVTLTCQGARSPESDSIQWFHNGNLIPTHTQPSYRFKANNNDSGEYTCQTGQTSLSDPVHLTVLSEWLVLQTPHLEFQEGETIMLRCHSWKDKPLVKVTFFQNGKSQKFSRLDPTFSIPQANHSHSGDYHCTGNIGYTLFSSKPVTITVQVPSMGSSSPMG

The target in test [3] is T3, FcgRIIb (human, UniProt P31994).
T3 chain: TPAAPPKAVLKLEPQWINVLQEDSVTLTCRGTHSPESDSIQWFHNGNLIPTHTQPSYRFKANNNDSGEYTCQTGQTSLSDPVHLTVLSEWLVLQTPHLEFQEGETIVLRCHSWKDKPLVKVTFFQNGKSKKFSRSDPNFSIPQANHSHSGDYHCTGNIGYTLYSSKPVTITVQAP

Test [4] deals with T4, FcgRIIIa F (human, UniProt P08637).
For test [5], the target named is T5, FcgRIIa H (human, UniProt P12318).
T5 chain: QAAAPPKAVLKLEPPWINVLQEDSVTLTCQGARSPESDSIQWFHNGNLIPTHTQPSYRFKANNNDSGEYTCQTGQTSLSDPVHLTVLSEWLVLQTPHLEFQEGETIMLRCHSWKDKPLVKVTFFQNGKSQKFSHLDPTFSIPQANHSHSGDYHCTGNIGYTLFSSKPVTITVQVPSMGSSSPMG

Test [6] concerns the target T6, FcgRIa (human, UniProt P12314).
T6 chain: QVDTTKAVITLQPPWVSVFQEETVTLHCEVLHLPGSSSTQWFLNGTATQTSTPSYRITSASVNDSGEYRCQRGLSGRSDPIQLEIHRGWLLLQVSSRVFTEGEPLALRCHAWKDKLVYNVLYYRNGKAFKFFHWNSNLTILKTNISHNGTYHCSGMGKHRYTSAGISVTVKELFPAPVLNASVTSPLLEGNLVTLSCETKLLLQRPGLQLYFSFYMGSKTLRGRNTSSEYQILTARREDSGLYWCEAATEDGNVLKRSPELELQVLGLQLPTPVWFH

The target in test [7] is T5, FcgRIIa H.
Test [8] deals with T2, FcgRIIa R.
The target in test [9] is T6, FcgRIa.
In test [10] the target is T4, FcgRIIIa F. The source holds these as a separate data set.
For test [11], the target named is T3, FcgRIIb.
The target in test [12] is T1, FcgRIIIa V. This is another data set of the same source.
For test [13], the target named is T2, FcgRIIa R.
Test [14] deals with T1, FcgRIIIa V. The source holds these as a separate data set.
Test [15] deals with T6, FcgRIa.
For test [16], the target named is T4, FcgRIIIa F. The source holds these as a separate data set.
Test [17] addresses T5, FcgRIIa H.
In test [18] the target is T3, FcgRIIb.

T4 sequence (P08637 17-208): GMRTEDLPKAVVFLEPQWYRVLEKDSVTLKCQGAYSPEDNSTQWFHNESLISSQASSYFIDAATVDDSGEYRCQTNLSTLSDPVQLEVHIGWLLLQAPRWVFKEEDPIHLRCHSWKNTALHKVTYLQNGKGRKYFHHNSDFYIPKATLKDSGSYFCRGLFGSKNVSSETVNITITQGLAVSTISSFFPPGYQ
T1 sequence (P08637 17-208 F176V): as the sequence (P08637 17-208) above, with F160V counted along it

B1: H240-Kn229/H240-Hl068/L73-k0 (antibody)
chain 1: QDQLVQSGAEVKKPGASVKVSCKASGFNIKDTYIQWVRQAPGQGLEWMGRIDPLRKQTKYREKFEGRVTITADTSTNTAYMELSSLRSEDTAVYYCVRSGREFDYWGQGTLVTVSSASTKGPSVFPLAPSSKSTSGGTAALGCLVKDYFPEPVTVSWNSGALTSGVHTFPAVLQSSGLYSLSSVVTVPSSSLGTQTYICNVNHKPSNTKVDKKVEPKSCDKTHTCPPCPAPEYYWGPIVFLFPPKPKDTLMISRTPEVTCVVVDVSDEDPEVKFNWYVDGVEVHNAKTKPREEQYNATYRVVSVLTVLHQDWLNGKEYKCKVSNKDLPAPIEKTISKAKGQPREPQVCTLPPSRDELTKNQVSLWCLVKGFYPSDIAVEWESNGQPENNYKTTPPVLDSDGSFFLYSKLTVDKSRWQQGNVFSCSVMHEALHNHYTQKSLSLSP
chain 2: QDQLVQSGAEVKKPGASVKVSCKASGFNIKDTYIQWVRQAPGQGLEWMGRIDPLRKQTKYREKFEGRVTITADTSTNTAYMELSSLRSEDTAVYYCVRSGREFDYWGQGTLVTVSSASTKGPSVFPLAPSSKSTSGGTAALGCLVKDYFPEPVTVSWNSGALTSGVHTFPAVLQSSGLYSLSSVVTVPSSSLGTQTYICNVNHKPSNTKVDKKVEPKSCDKTHTCPPCPAPELLGGPSVFLFPPKPKDTLMISRTPEVTCVVVDVSHEEPEVKFNWYVDGVEVHNAKTKPREEQYNSTYRVVSVLTVLHQDWLNGKEYKCKVSNDALPKPIEETISKAKGQPREPQVYTLPPSRCELTKNQVSLSCAVKGFYPSDIAVEWESNGQPENNYKTTPPVLDSDGSFFLVSKLTVDKSRWQQGNVFSCSVMHEALHNHYTQKSLSLSP
chain 3: DIQMTQSPSSLSASVGDRVTITCRASQDIHKYIAWYQQKPGQAPRLLIQYTSTLQPGVPSRFSGSGSGTDYTFTISSLQPEDIATYYCLQYEQLRTFGGGTKVEIKRTVAAPSVFIFPPSDEQLKSGTASVVCLLNNFYPREAKVQWKVDNALQSGNSQESVTEQDSKDSTYSLSSTLTLSKADYEKHKVYACEVTHQGLSSPVTKSFNRGEC
One may read the Kd as the constant that tells how readily two partners part at equilibrium. Regarding B1, the Kd in test [1] stood at 0.77 nM; in test [2], 16 nM; in [3], 200 nM; in test [4], 2.1 nM; in [5], 39 nM; in test [6], 0.13 nM.

B2: H240-A5E/H240-B3E/L73-k0 (antibody)
chain 1: not shown
chain 2: not shown
chain 3: DIQMTQSPSSLSASVGDRVTITCRASQDIHKYIAWYQQKPGQAPRLLIQYTSTLQPGVPSRFSGSGSGTDYTFTISSLQPEDIATYYCLQYEQLRTFGGGTKVEIKRTVAAPSVFIFPPSDEQLKSGTASVVCLLNNFYPREAKVQWKVDNALQSGNSQESVTEQDSKDSTYSLSSTLTLSKADYEKHKVYACEVTHQGLSSPVTKSFNRGEC
Take B2: the Kd in [7] is 910 nM; in [8] it was 940 nM; in [9], 0.61 nM; in test [10] it was 1600 nM; in test [11] it was 4300 nM; in [12], 330 nM.

B3: H240-Kn225/H240-Hl076/L73-k0 (antibody)
chain 1: QDQLVQSGAEVKKPGASVKVSCKASGFNIKDTYIQWVRQAPGQGLEWMGRIDPLRKQTKYREKFEGRVTITADTSTNTAYMELSSLRSEDTAVYYCVRSGREFDYWGQGTLVTVSSASTKGPSVFPLAPSSKSTSGGTAALGCLVKDYFPEPVTVSWNSGALTSGVHTFPAVLQSSGLYSLSSVVTVPSSSLGTQTYICNVNHKPSNTKVDKKVEPKSCDKTHTCPPCPAPEYQWGPIVFLFPPKPKDTLMISRTPEVTCVVVDVSDEEPEVKFNWYVDGVEVHNAKTKPREEQYNATYRVVSVLTVLHQDWLNGKEYKCKVSNKALPAPIEKTISKAKGQPREPQVCTLPPSRDELTKNQVSLWCLVKGFYPSDIAVEWESNGQPENNYKTTPPVLDSDGSFFLYSKLTVDKSRWQQGNVFSCSVMHEALHNHYTQKSLSLSP
chain 2: QDQLVQSGAEVKKPGASVKVSCKASGFNIKDTYIQWVRQAPGQGLEWMGRIDPLRKQTKYREKFEGRVTITADTSTNTAYMELSSLRSEDTAVYYCVRSGREFDYWGQGTLVTVSSASTKGPSVFPLAPSSKSTSGGTAALGCLVKDYFPEPVTVSWNSGALTSGVHTFPAVLQSSGLYSLSSVVTVPSSSLGTQTYICNVNHKPSNTKVDKKVEPKSCDKTHTCPPCPAPELLGGPSVFLFPPKPKDTLMISRTPEVTCVVVDVSHEEPEVKFNWYVDGVEVHNAKTKPREEQYNSTYRVVSVLTVLHQDWLNGKEYKCKVSNDALPMPIEETISKAKGQPREPQVYTLPPSRCELTKNQVSLSCAVKGFYPSDIAVEWESNGQPENNYKTTPPVLDSDGSFFLVSKLTVDKSRWQQGNVFSCSVMHEALHNHYTQKSLSLSP
chain 3: DIQMTQSPSSLSASVGDRVTITCRASQDIHKYIAWYQQKPGQAPRLLIQYTSTLQPGVPSRFSGSGSGTDYTFTISSLQPEDIATYYCLQYEQLRTFGGGTKVEIKRTVAAPSVFIFPPSDEQLKSGTASVVCLLNNFYPREAKVQWKVDNALQSGNSQESVTEQDSKDSTYSLSSTLTLSKADYEKHKVYACEVTHQGLSSPVTKSFNRGEC
Consider B3, for which the Kd in test [1] turned out to be 0.19 nM; in test [2] it was 490 nM; in test [3], 5200 nM; in test [4], 1.1 nM; in [5] it was 170 nM; in [6], 0.036 nM.

B4: H240-AK072/H240-BH076/L73-k0 (antibody)
chain 1: QDQLVQSGAEVKKPGASVKVSCKASGFNIKDTYIQWVRQAPGQGLEWMGRIDPLRKQTKYREKFEGRVTITADTSTNTAYMELSSLRSEDTAVYYCVRSGREFDYWGQGTLVTVSSASTKGPSVFPLAPSSKSTSGGTAALGCLVKDYFPEPVTVSWNSGALTSGVHTFPAVLQSSGLYSLSSVVTVPSSSLGTQTYICNVNHKPSNTKVDKKVEPKSCDKTHTCPPCPAPEYYWGPSVFLFPPKPKDTLMISRTPEVTCVVVDVSDEEPEVKFNWYVDGVEVHNAKTKPREEQYNATYRVVSVLTVLHQDWLNGKEYKCKVSNKALPAPIEKTISKAKGQPREPQVYTLPPSRKEMTKNQVSLTCLVKGFYPSDIAVEWESNGQPENNYKTTPPVLDSDGSFFLYSKLTVDKSRWQQGNVFSCSVMHEALHNRYTQKSLSLSP
chain 2: QDQLVQSGAEVKKPGASVKVSCKASGFNIKDTYIQWVRQAPGQGLEWMGRIDPLRKQTKYREKFEGRVTITADTSTNTAYMELSSLRSEDTAVYYCVRSGREFDYWGQGTLVTVSSASTKGPSVFPLAPSSKSTSGGTAALGCLVKDYFPEPVTVSWNSGALTSGVHTFPAVLQSSGLYSLSSVVTVPSSSLGTQTYICNVNHKPSNTKVDKKVEPKSCDKTHTCPPCPAPELLGGPSVFLFPPKPKDTLMISRTPEVTCVVVDVSHEEPEVKFNWYVDGVEVHNAKTKPREEQYNSTYRVVSVLTVLHQDWLNGKEYKCKVSNDALPMPIEETISKAKGQPREPQVYTLPPSREEMTKNQVSLTCLVKGFYPSDIAVEWESNGQPENNYKTTPPVLDSDGSFFLYSKLTVDKSRWQQGNVFSCSVMHEALHNHYTQESLSLSP
chain 3: DIQMTQSPSSLSASVGDRVTITCRASQDIHKYIAWYQQKPGQAPRLLIQYTSTLQPGVPSRFSGSGSGTDYTFTISSLQPEDIATYYCLQYEQLRTFGGGTKVEIKRTVAAPSVFIFPPSDEQLKSGTASVVCLLNNFYPREAKVQWKVDNALQSGNSQESVTEQDSKDSTYSLSSTLTLSKADYEKHKVYACEVTHQGLSSPVTKSFNRGEC
In the case of B4, the Kd in [7] is 130 nM; in test [8], 460 nM; in test [9] it was 0.24 nM; in test [10], 3.7 nM; in test [13], 240 nM and 280 nM; in test [14], 0.99 nM and 1.2 nM. The Kd is 2900 nM in test [11]; 0.11 nM and 0.12 nM in [15]; 3.7 nM and 2.9 nM in [16]; 0.98 nM in test [12]; 79 nM and 72 nM and 69 nM in [17]; 1300 nM and 1400 nM and 1500 nM in test [18].
